Patent US20110166062A1 (INDIANA UNIVERSITY RESEARCH AND TECHNOLOGY, published 2011)
Bridges are numbered along the chain shown (N, C = ends). Primed or numbered codes have the meaning given here. Where no end group is shown, it is not given here. Side-chain parts run from the residue outwards. [ ]: non-standard residue; d: D form. maleimide = maleimide group on activated PEG, it reacts with the Cys thiol (Michael addition) to give a thioether linkage; PEG 40 kDa″ = polyethylene glycol of 40 kDa covalently attached to the side chain; PEG 40 kDa = PEG (40 kDa) covalently attached to Cys; Aib = CC(C)(N)C(=O)O

T1: GIP receptor (UniProt P48546 22-466)
T1 sequence (looked up): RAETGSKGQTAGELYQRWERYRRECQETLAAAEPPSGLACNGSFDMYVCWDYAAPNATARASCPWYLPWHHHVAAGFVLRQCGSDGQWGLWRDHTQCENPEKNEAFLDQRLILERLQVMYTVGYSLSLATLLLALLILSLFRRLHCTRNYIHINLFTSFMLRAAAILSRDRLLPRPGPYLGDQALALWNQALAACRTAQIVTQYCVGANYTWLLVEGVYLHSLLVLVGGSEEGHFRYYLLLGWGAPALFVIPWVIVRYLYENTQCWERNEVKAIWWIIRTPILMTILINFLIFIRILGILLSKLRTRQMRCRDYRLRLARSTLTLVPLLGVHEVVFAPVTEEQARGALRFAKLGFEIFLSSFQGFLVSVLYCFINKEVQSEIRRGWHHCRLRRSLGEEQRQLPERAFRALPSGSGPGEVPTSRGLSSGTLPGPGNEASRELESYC

T2: GIP receptor (UniProt P48546 22-466)
T2 sequence (looked up): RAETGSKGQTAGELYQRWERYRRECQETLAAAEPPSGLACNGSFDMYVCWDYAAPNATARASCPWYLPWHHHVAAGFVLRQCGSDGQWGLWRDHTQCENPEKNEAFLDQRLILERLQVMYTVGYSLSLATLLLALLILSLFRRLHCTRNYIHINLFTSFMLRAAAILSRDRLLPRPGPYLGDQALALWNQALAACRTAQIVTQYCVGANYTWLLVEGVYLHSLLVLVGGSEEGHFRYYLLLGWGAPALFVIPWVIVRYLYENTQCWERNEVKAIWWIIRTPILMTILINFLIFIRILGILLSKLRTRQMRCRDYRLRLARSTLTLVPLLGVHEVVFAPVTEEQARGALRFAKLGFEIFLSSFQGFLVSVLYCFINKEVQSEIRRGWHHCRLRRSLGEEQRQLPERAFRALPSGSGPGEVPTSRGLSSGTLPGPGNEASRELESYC


Key:
Assay in all cases: cell-based or functional assay
GLP-1 receptor [1] = target: GLP-1 receptor (UniProt P43220 24-463, limits assumed)
GIP receptor [2] = target: T1, GIP receptor
glucagon receptor = glucagon receptor (UniProt P47871 26-477, limits assumed)
Chain of glucagon receptor (P47871 26-477 limits assumed): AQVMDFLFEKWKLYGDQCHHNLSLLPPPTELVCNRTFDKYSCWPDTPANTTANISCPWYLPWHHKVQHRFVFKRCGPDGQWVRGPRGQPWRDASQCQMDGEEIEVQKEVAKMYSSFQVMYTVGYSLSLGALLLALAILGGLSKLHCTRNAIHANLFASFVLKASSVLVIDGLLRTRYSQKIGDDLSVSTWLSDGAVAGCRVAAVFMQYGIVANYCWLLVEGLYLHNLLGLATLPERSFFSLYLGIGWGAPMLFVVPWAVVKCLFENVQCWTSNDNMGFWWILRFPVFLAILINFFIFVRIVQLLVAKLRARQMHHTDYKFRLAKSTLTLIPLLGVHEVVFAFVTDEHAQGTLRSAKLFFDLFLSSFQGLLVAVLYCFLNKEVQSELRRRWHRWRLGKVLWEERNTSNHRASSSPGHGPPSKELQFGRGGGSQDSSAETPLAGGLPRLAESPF

GLP-1 receptor [3] = target: GLP-1 receptor (UniProt P43220 24-463, limits assumed); remark: listed apart in the source
GIP receptor [4] = target: T2, GIP receptor; remark: listed apart in the source

Row | Binder | EC50 (GLP-1 receptor [1]) [nM] | relative activity (GLP-1 receptor [1]) [%] | EC50 (GIP receptor [2]) [nM] | relative activity (GIP receptor [2]) [%] | EC50 (glucagon receptor) [nM] | relative activity (glucagon receptor) [%] | EC50, nM; GLP-1 Receptor (GLP-1 receptor [3]) [nM] | EC50, nM; GIP Receptor (GIP receptor [4]) [nM]
1 | Y[Aib]QGTFTSDYSIYLDEQAAKEFVC(PEG 40 kDa″)WLMNG-NH2 (lactam 16-20) [mt-186] | 0.5 | 2.8 | 15.2 | 0.14 | 1.58 | 2.22 | – | –
2 | Y[Aib]QGTFTSEYSKYLDEQAAKEFVNWLLAGGPSSGAPPPSC-NH2 (lactam 9-12, 16-20; not fully specified) [mt-209] | 2.34 | 1.33 | 1.05 | 1.42 | 4.66 | 0.9 | – | –
3 | Y[Aib]QGTFTSDYSIYLDEQAAKEFVNWLLAGKGKKNWLKHNITQC-NH2 (lactam 16-20) [mt-207] | 0.073 | 42.5 | 0.622 | 2.41 | 3.2 | 1.31 | – | –
4 | Y[Aib]EGTFTSDYSIYLDEQAAKEFVNWLLAGGPSSGAPPPSC([maleimide-PEG 40 kDa])-NH2 (lactam 16-20) [mt-178] | 0.171 | 8.19 | 0.448 | 4.69 | 8.25 | 0.42 | – | –
5 | Y[Aib]EGTFTSDYSIYLDEQAAKEFVNWLLAGKGKKNWLKHNITQC(PEG 40 kDa″)-NH2 (lactam 16-20) [mt-208] | 0.262 | – | 0.313 | – | 448 | 0.01 | – | –
6 | Y[Aib]QGTFTSDYSIYLDEQAAKEFVC(PEG 40 kDa)WLLAGGPSSGAPPPS-NH2 (lactam 16-20) [mt-175] | 0.22 | 5.91 | 1.93 | 0.93 | 2.42 | 1.49 | – | –
7 | Y[Aib]QGTFTSDYSIYLDEQAAKEFVNWLLAGGPSSGAPPPS-NH2 (N-terminus assumed; SMILES CC[C@H](C)[C@H](NC(=O)[C@H](CO)NC(=O)[C@H](Cc1ccc(O)cc1)NC(=O)[C@H](CC(=O)O)NC(=O)[C@H](CO)NC(=O)[C@@H](NC(=O)[C@H](Cc1ccccc1)NC(=O)[C@@H](NC(=O)CNC(=O)[C@H](CCC(N)=O)NC(=O)C(C)(C)NC(=O)[C@@H](N)Cc1ccc(O)cc1)[C@@H](C)O)[C@@H](C)O)C(=O)N[C@@H](Cc1ccc(O)cc1)C(=O)N[C@@H](CC(C)C)C(=O)N[C@@H](CC(=O)O)C(=O)N[C@@H](CCC(=O)O)C(=O)N[C@@H](CCC(N)=O)C(=O)N[C@@H](C)C(=O)N[C@@H](C)C(=O)N[C@@H](CCCCN)C(=O)N[C@@H](CCC(=O)O)C(=O)N[C@@H](Cc1ccccc1)C(=O)N[C@H](C(=O)N[C@@H](CC(N)=O)C(=O)N[C@@H](Cc1c[nH]c2ccccc12)C(=O)N[C@@H](CC(C)C)C(=O)N[C@@H](CC(C)C)C(=O)N[C@@H](C)C(=O)NCC(=O)NCC(=O)N1CCC[C@H]1C(=O)N[C@@H](CO)C(=O)N[C@@H](CO)C(=O)NCC(=O)N[C@@H](C)C(=O)N1CCC[C@H]1C(=O)N1CCC[C@H]1C(=O)N1CCC[C@H]1C(=O)N[C@@H](CO)C(N)=O)C(C)C) [mt-191] | 0.011 | 209 | 0.189 | 16.9 | 1.46 | 4.32 | – | –
8 | YXEGTFTSDYSIYLDKQAAXEFVNWLLAGGPSSGAPPPSKC (C-terminal amide; acylation at position 40 of each monomer, no spacer; monomers linked via a PEG at C-terminal Cys residues) [mt-376] | – | – | – | – | – | – | 0.0106 | 0.0068
9 | YXEGTFTSDYSIYLDKQAAXEFVNWLLAGGPSSGAPPPSKC (C-terminal amide; acylation at position 40 of each monomer, no spacer; monomers linked via a PEG at C-terminal Cys residues) [mt-377] | – | – | – | – | – | – | 0.0076 | 0.0031
10 | [Aib]QGTFTSDYSIYLDEQAAKEFVNWLLAG-NH2 (lactam 15-19; N-terminus assumed; SMILES CC[C@H](C)[C@H](NC(=O)[C@H](CO)NC(=O)[C@H](Cc1ccc(O)cc1)NC(=O)[C@H](CC(=O)O)NC(=O)[C@H](CO)NC(=O)[C@@H](NC(=O)[C@H](Cc1ccccc1)NC(=O)[C@@H](NC(=O)CNC(=O)[C@H](CCC(N)=O)NC(=O)C(C)(C)N)[C@@H](C)O)[C@@H](C)O)C(=O)N[C@@H](Cc1ccc(O)cc1)C(=O)N[C@@H](CC(C)C)C(=O)N[C@@H](CC(=O)O)C(=O)N[C@H]1CCC(=O)NCCCC[C@@H](C(=O)N[C@@H](CCC(=O)O)C(=O)N[C@@H](Cc2ccccc2)C(=O)N[C@H](C(=O)N[C@@H](CC(N)=O)C(=O)N[C@@H](Cc2c[nH]c3ccccc23)C(=O)N[C@@H](CC(C)C)C(=O)N[C@@H](CC(C)C)C(=O)N[C@@H](C)C(=O)NCC(N)=O)C(C)C)NC(=O)[C@H](C)NC(=O)[C@H](C)NC(=O)[C@H](CCC(N)=O)NC1=O) [mt-198] | 13.2 | 0.17 | 149 | 0.02 | 11.9 | 0.53 | – | –
11 | Y[Aib]EGTFTSDYSIYLDEQAAKEFVNWLLAGGPSSGAPPPSC-NH2 (lactam 16-20; N-terminus assumed; SMILES CC[C@H](C)[C@H](NC(=O)[C@H](CO)NC(=O)[C@H](Cc1ccc(O)cc1)NC(=O)[C@H](CC(=O)O)NC(=O)[C@H](CO)NC(=O)[C@@H](NC(=O)[C@H](Cc1ccccc1)NC(=O)[C@@H](NC(=O)CNC(=O)[C@H](CCC(=O)O)NC(=O)C(C)(C)NC(=O)[C@@H](N)Cc1ccc(O)cc1)[C@@H](C)O)[C@@H](C)O)C(=O)N[C@@H](Cc1ccc(O)cc1)C(=O)N[C@@H](CC(C)C)C(=O)N[C@@H](CC(=O)O)C(=O)N[C@H]1CCC(=O)NCCCC[C@@H](C(=O)N[C@@H](CCC(=O)O)C(=O)N[C@@H](Cc2ccccc2)C(=O)N[C@H](C(=O)N[C@@H](CC(N)=O)C(=O)N[C@@H](Cc2c[nH]c3ccccc23)C(=O)N[C@@H](CC(C)C)C(=O)N[C@@H](CC(C)C)C(=O)N[C@@H](C)C(=O)NCC(=O)NCC(=O)N2CCC[C@H]2C(=O)N[C@@H](CO)C(=O)N[C@@H](CO)C(=O)NCC(=O)N[C@@H](C)C(=O)N2CCC[C@H]2C(=O)N2CCC[C@H]2C(=O)N2CCC[C@H]2C(=O)N[C@@H](CO)C(=O)N[C@@H](CS)C(N)=O)C(C)C)NC(=O)[C@H](C)NC(=O)[C@H](C)NC(=O)[C@H](CCC(N)=O)NC1=O) [mt-174] | 0.017 | 118 | 0.023 | 95.7 | 57.5 | 0.06 | – | –
12 | Y[Aib]QGTFISDYSIYLDEQAAKEFVNWLLAGGPSSGAPPPSC-NH2 (lactam 16-20) [mt-176] | 8.69 | – | 0.055 | – | 0.141 | – | – | –
13 | Y[Aib]QGTFTSDYSIYLDEEAVRLFVNWLLAGGPSSGAPPPS-NH2 (N-terminus assumed; SMILES CC[C@H](C)[C@H](NC(=O)[C@H](CO)NC(=O)[C@H](Cc1ccc(O)cc1)NC(=O)[C@H](CC(=O)O)NC(=O)[C@H](CO)NC(=O)[C@@H](NC(=O)[C@H](Cc1ccccc1)NC(=O)[C@@H](NC(=O)CNC(=O)[C@H](CCC(N)=O)NC(=O)C(C)(C)NC(=O)[C@@H](N)Cc1ccc(O)cc1)[C@@H](C)O)[C@@H](C)O)C(=O)N[C@@H](Cc1ccc(O)cc1)C(=O)N[C@@H](CC(C)C)C(=O)N[C@@H](CC(=O)O)C(=O)N[C@@H](CCC(=O)O)C(=O)N[C@@H](CCC(=O)O)C(=O)N[C@@H](C)C(=O)N[C@H](C(=O)N[C@@H](CCCNC(=N)N)C(=O)N[C@@H](CC(C)C)C(=O)N[C@@H](Cc1ccccc1)C(=O)N[C@H](C(=O)N[C@@H](CC(N)=O)C(=O)N[C@@H](Cc1c[nH]c2ccccc12)C(=O)N[C@@H](CC(C)C)C(=O)N[C@@H](CC(C)C)C(=O)N[C@@H](C)C(=O)NCC(=O)NCC(=O)N1CCC[C@H]1C(=O)N[C@@H](CO)C(=O)N[C@@H](CO)C(=O)NCC(=O)N[C@@H](C)C(=O)N1CCC[C@H]1C(=O)N1CCC[C@H]1C(=O)N1CCC[C@H]1C(=O)N[C@@H](CO)C(N)=O)C(C)C)C(C)C) [mt-201] | 0.012 | 192 | 0.072 | 44.4 | 26.7 | 0.24 | – | –
14 | Y[Aib]EGTFTSDYSIYLDEQAAKEFVNWLLAGKGKKNWLKHNITQC-NH2 (lactam 16-20) [mt-206] | 0.095 | – | 0.115 | – | 331 | 0.01 | – | –
